In patent publication US20220048996A1 (F STAR BETA, published 2022):

What was measured:
[1] = target: T1, mouse CD137 expressed on DO11.10 cells (DO11.10-mCD137) (mouse, UniProt P20334 24-256); assay: flow cytometry on DO11.10 cells expressing the target
T1 construct: also called CD137 on mouse T cells
Method: (§1) The binding affinity of the FS20m-232-91AA/Lob12.3 mAb² for cell-expressed mouse OX40 and CD137 was determined using flow cytometry. […] DO11.10-mOX40, DO11.10-mCD137, or HEK cell suspensions were prepared in PBS+2% BSA (Sigma, A7906) and seeded at 4×10⁶ cell/ml with 50 μl/well in V-bottomed 96-well plates (Costar, 3897). 50 μl of the antibody dilutions were added to the wells containing cells (final volume 100 μl ) and incubated at 4° C. for 1 hour. […] The plates were washed and resuspended in 100 μl of PBS containing DAPI (Biotium, cat no 40043) at 1 μg/ml. The plates were analysed using a Canto II flow cytometer (BD Bioscience) and the data analysed using FlowJo. Dead cells were identified by their higher fluorescence on the UV (405 nm/450/50) channel and excluded from analysis. […] The GMFI data was fit using log (agonist) vs response (three parameters) in GraphPad Prism Software to generate EC₅₀ values.

[2] = target: T2, hCD137-mFc-Avi (human); assay: SPR, mAb^2 at 1 nM on CD137 against 1 µM on related receptors
T2 construct: Dimer; a biotinylated version was used where the text says so; also called human CD137-mFc-Avi; hCD137-mFc-Avi-Bio
T2 sequence (chain, as listed by the source limits assumed): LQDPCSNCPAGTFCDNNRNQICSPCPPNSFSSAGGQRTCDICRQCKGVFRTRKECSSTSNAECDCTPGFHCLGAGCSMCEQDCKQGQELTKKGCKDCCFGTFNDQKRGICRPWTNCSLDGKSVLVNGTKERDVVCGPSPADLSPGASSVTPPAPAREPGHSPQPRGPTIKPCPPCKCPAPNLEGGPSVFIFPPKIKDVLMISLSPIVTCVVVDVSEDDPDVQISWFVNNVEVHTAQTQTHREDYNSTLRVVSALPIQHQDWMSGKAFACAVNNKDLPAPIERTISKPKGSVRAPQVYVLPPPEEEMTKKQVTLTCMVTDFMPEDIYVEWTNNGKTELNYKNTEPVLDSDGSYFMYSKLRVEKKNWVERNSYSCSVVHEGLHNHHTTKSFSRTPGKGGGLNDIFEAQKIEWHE
Description: CD137 and OX40 belongs to the tumour necrosis factor receptor superfamily (TNFRSF) of cytokine receptors (Moran et al., 2013).
Briefly, flow cells on CM5 chips were immobilised with approx. 1000 RU of either human CD137-mFc-Avi (Table 3), OX40-mFc (Table 2), recombinant human TNFRSF1A-Fc, recombinant human TNFRSF1B-Fc, recombinant human GITR-Fc, recombinant human NGFR-Fc, recombinant human CD40-Fc or recombinant human DR6-Fc. Flow cell 1 was left for blank immobilisation. The five mAb² were diluted to 1 μM and 1 nM in 1×HBS-EP buffer (GE Healthcare, product code BR100188), allowed to flow over the chip for 3 min and then allowed to dissociate for 4 minutes. A 30-second injection of 10 mM glycine pH 1.5 was used for regeneration. […] Binding levels were determined at the end of the association phase and compared.

[3] = target: T3, mouse OX40 expressed on DO11.10 cells (DO11.10-mOX40) (mouse, UniProt P47741 20-272); assay: cell-based or functional assay
T3 sequence: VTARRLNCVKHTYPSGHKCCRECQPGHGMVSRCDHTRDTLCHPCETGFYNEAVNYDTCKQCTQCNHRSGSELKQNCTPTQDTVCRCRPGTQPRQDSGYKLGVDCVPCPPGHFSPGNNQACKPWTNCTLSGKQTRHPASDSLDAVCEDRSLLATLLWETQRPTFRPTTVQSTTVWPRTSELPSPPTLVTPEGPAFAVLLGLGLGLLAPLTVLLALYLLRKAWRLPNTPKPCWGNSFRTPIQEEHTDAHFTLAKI

[4] = target: T3, mouse OX40 expressed on DO11.10 cells …; assay: flow cytometry on DO11.10 cells expressing the target
Method: as §1

[5] = target: T4, cynomolgus CD137 expressed on DO11.10 cells (DO11.10-cCD137) (cynomolgus monkey, UniProt Q07011 24-255 (human entry)); assay: as above
T4 chain: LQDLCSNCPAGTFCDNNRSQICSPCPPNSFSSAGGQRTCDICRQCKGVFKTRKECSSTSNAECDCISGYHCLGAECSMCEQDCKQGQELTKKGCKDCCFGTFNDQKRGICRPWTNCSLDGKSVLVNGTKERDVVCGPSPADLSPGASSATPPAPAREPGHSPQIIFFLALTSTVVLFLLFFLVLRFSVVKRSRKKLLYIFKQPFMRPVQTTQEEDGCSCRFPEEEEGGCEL
Method: (§2) 50 μl of the antibody dilutions were added to the wells containing cells (final volume 100 μl) and incubated at 4° C. for 1 hour. […] The plates were washed and resuspended in 100 μl of PBS containing DAPI (Biotium, cat no 40043) at 1 μg/ml. The plates were analysed using a Canto II flow cytometer (BD Bioscience) and the data analysed using FlowJo. Dead cells were identified by their higher fluorescence on the UV (405 nm/450/50) channel and excluded from analysis. […] The GMFI data was fit using log (agonist) vs response (three parameters) in Graph Pad Prism Software to generate EC₅₀ values.

[6] = target: T5, human CD137 expressed on DO11.10 cells (DO11.10-hCD137) (human, UniProt Q07011 24-255); assay: as above
T5 construct: also called CD137 on human T cells
Method: as §2

[7] = target: T5, human CD137 expressed on DO11.10 cells …; assay: cell-based or functional assay
Target sequence in this assay (Q07011 24-255): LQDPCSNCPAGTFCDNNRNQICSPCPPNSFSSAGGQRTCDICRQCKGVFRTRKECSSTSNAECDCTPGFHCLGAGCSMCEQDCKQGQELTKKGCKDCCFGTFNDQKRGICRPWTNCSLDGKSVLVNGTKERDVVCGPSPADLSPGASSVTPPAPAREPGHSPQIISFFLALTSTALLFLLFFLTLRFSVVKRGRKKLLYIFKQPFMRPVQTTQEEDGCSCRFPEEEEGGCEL

[8] = target: T6, human OX40 expressed on DO11.10 cells (DO11.10-hOX40) (human, UniProt P43489 29-277); assay: cell-based or functional assay
T6 sequence: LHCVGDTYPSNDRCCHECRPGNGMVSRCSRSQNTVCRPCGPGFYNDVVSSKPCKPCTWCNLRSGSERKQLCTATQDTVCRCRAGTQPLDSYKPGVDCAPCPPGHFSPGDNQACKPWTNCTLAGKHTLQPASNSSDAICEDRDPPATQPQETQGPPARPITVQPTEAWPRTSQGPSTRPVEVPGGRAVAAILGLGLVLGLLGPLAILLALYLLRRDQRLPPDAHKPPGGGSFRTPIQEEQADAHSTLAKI

[9] = target: T2, hCD137-mFc-Avi; assay: SPR, antigen immobilised on CM5, mAb^2 at 1 nM and 1 µM
[10] = target: T7, hOX40-mFc (human); assay: as above
T7 construct: Dimeric; also called human OX40-mFc
T7 chain: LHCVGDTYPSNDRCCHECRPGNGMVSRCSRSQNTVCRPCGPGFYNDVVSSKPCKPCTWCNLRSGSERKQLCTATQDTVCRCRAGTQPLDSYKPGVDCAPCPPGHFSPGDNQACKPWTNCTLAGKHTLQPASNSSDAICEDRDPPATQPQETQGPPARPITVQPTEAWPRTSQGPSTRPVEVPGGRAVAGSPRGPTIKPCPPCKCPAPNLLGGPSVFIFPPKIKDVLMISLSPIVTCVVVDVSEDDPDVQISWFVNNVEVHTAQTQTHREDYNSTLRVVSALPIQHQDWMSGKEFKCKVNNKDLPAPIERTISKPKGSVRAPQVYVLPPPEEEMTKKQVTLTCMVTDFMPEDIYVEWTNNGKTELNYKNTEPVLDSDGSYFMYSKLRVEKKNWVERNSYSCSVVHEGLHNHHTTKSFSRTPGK

T1 sequence (P20334 24-256): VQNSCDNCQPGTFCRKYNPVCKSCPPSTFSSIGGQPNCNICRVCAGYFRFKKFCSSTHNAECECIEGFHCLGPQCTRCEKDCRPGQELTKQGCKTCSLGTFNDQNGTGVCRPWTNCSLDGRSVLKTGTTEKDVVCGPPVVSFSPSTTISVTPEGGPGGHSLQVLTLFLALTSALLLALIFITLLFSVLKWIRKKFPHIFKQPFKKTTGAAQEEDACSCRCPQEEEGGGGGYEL

B1: FS20m-232-91AA/HEL D1.3 (antibody, V domains shown)
VH: QVQLQESGPGLVRPSQTLSLTCTVSGSTFSGYGVNWVRQPPGRGLEWIGMIWGDGNTDYNSALKSRVTMLVDTSKNQFSLRLSSVTAADTAVYYCARERDYRLDYWGQGSLVTVSS
VL: DIQMTQSPASLSASVGETVTITCRASGNIHNYLAWYQQKQGKSPQLLVYNAKTLADGVPSRFSGSGSGTQYSLKINSLQPEDFGSYYCQHFWSTPRTFGGGTKLEIKR
notes: also called OX40/HEL mock mAb^2
[1]
  binding result: no binding

B2: FS20-22-49AA/FS30-10 (bispecific antibody, V domains shown)
VH: EVQLLESGGGLVQPGGSLRLSCAASGFTFSSYDMSWVRQAPGKGLEWVSDIDPTGSKTDYADSVKGRFTISRDNSKNTLYLQMNSLRAEDTAVYYCARDLMVYGFDYWGQGTLVTVSS
VL: EIVLTQSPGTLSLSPGERATLSCRASQSVSSSYLAWYQQKPGQAPRLLIYGASSRATGIPDRFSGSGSGTDFTLTISRLEPEDFAVYYCQQSYSYPVTFGQGTKVEIKR
notes: Parent mAb^2; derived by reversing the stated change
[2]
  specificity for CD137 over TNFRSF1A, TNFRSF1B, GITR, NGFR and CD40 (fold): ~1000 fold

B3: G1AA/OX86 (antibody, human IgG1, kappa, L234A L235A, V domains shown)
VH: QVQLKESGPGLVQPSQTLSLTCTVSGFSLTGYNLHWVRQPPGKGLEWMGRMRYDGDTYYNSVLKSRLSISRDTSKNQVFLKMNSLQTDDTAIYYCTRDGRGDSFDYWGQGVMVTVSS
VL: DIVMTQGALPNPVPSGESASITCRSSQSLVYKDGQTYLNWFLQRPGQSPQLLTYWMSTRASGVSDRFSGSGSGTYFTLKISRVRAEDAGVYYCQQVREYPFTFGSGTKLEIKR
[3]
  mouse pan-T cell activation assay, mIL-2 release EC50, crosslinked: 2.41 nM

B4: G1/OX86 (antibody, human IgG1, kappa, V domains shown)
VH: QVQLKESGPGLVQPSQTLSLTCTVSGFSLTGYNLHWVRQPPGKGLEWMGRMRYDGDIYYNSVLKSRLSISRDTSKNQVFLKMNSLQTDDTAIYYCTRDGRGDSFDYWGQGVMVTVSS
VL: DIVMTQGALPNPVPSGESASITCRSSQSLVYKDGQTYLNWFLQRPGQSPQLLTYWMSTRASGVSDRFSGSGSGTYFTLKISRVRAEDAGVYYCQQVREYPFTFGSGTKLEIKR
notes: also called G1/0X86; anti-mouse OX40 mAb OX86 in a human IgG1 backbone
[1]
  binding result: no binding
[4]
  EC50: 0.538 nM

B5: FS20m-232-91AA/4420 (antibody, human IgG1, kappa, L234A L235A)
heavy: EVKLDETGGGLVQPGRPMKLSCVASGFTFSDYWMNWVRQSPEKGLEWVAQIRNKPYNYETYYSDSVKGRFTISRDDSKSSVYLQMNNLRVEDMGIYYCTGSYYGMDYWGQGTSVTVSSASTKGPSVFPLAPSSKSTSGGTAALGCLVKDYFPEPVTVSWNSGALTSGVHTFPAVLQSSGLYSLSSVVTVPSSSLGTQTYICNVNHKPSNTKVDKKVEPKSCDKTHTCPPCPAPEAAGGPSVFLFPPKPKDTLMISRTPEVTCVVVDVSHEDPEVKFNWYVDGVEVHNAKTKPREEQYNSTYRVVSVLTVLHQDWLNGKEYKCKVSNKALPAPIEKTISKAKGQPREPQVYTLPPSRDELFDPMYYYNQVSLTCLVKGFYPSDIAVEWESNGEPLWDYKTTPPVLDSDGSFFLYSKLTVWRDRWEDGNVFSCSVMHEALHNHYTQKSLSLSPGK
light: DVVMTQTPLSLPVSLGDQASISCRSSQSLVHSNGNTYLRWYLQKPGQSPKVLIYKVSNRFSGVPDRFSGSGSGTDFTLKISRVEAEDLGVYFCSQSTHVPWTFGGGTKLEIKRTVAAPSVFIFPPSDEQLKSGTASVVCLLNNFYPREAKVQWKVDNALQSGNSQESVTEQDSKDSTYSLSSTLTLSKADYEKHKVYACEVTHQGLSSPVTKSFNRGEC
[3]
  mouse pan-T cell activation assay, mIL-2 release EC50, crosslinked: 0.257 nM

B6: G1/4420 (antibody, human IgG1, kappa)
heavy: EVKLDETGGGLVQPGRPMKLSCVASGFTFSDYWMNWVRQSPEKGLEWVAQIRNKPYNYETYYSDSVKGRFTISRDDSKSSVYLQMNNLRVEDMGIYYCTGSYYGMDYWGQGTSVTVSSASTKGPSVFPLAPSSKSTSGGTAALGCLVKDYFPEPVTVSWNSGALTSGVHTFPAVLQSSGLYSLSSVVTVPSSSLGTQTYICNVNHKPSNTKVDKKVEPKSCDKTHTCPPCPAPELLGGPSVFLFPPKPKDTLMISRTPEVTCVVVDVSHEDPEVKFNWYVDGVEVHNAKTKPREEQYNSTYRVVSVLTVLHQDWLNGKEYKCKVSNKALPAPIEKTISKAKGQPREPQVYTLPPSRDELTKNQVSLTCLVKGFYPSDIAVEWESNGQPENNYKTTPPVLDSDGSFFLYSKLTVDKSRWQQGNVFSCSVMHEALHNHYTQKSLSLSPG
light: DVVMTQTPLSLPVSLGDQASISCRSSQSLVHSNGNTYLRWYLQKPGQSPKVLIYKVSNRFSGVPDRFSGSGSGTDFTLKISRVEAEDLGVYFCSQSTHVPWTFGGGTKLEIKRTVAAPSVFIFPPSDEQLKSGTASVVCLLNNFYPREAKVQWKVDNALQSGNSQESVTEQDSKDSTYSLSSTLTLSKADYEKHKVYACEVTHQGLSSPVTKSFNRGEC
notes: also called anti-FITC antibody 4420 in IgG1 format; isotype control
[5]
  binding result: no binding
[6]
  binding result: no binding
[1]
  binding result: no binding
[4]
  binding result: no binding

B7: FS20-22-49AA/FS30-35 (bispecific antibody, V domains shown)
VH: EVQLLESGGGLVQPGGSLRLSCAASGFTFSAYNIHWVRQAPGKGLEWVSDISPYGGATNYADSVKGRFTISRDNSKNTLYLQMNSLRAEDTAVYYCARNLYELSAYSYGMDYWGQGTLVTVSS
VL: EIVLTQSPGTLSLSPGERATLSCRASQSVSSSYLAWYQQKPGQAPRLLIYGASSRATGIPDRFSGSGSGTDFTLTISRLEPEDFAVYYCQQYYYSSPITFGQGTKVEIKR
notes: as for B2
[2]
  specificity for CD137 over TNFRSF1A, TNFRSF1B, GITR, NGFR and CD40 (fold): ~1000 fold

B8: FS20-22-49AA/FS30-35-14 (bispecific antibody, human IgG1, kappa, L234A L235A, V domains shown)
VH: EVQLLESGGGLVQPGGSLRLSCAASGFTFSAYNIHWVRQAPGKGLEWVSDISPYGGATNYADSVKGRFTISRDNSKNTLYLQMNSLRAEDTAVYYCARNLYELSAYSYGADYWGQGTLVTVSS
VL: EIVLTQSPGTLSLSPGERATLSCRASQSVSSSYLAWYQQKPGQAPRLLIYGASSRATGIPDRFSGSGSGTDFTLTISRLEPEDFAVYYCQQYYYSSPITFGQGTKVEIKR
notes: IgG1 with LALA; also called OX40/CD137 mAb^2
[7]
  EC50 of mIL-2 release, DO11.10-hCD137 assay, crosslinked: 5.1 nM
  Emax of mIL-2 release, DO11.10-hCD137 assay, crosslinked: 19800 pg/mL
[8]
  SEA assay (PBMC), hIL-2 max response, crosslinked: 32200 pg/mL
  SEA assay (PBMC), hIL-2 max response, no crosslinker: 32400 pg/mL
  SEA assay (PBMC), hIL-2 release EC50, crosslinked: 0.14 nM
  SEA assay (PBMC), hIL-2 release EC50, no crosslinker: 0.09 nM
[9]
  binding result: binds
[10]
  binding result: binds
